± gives the uncertainty stated by the source.
B1: LIM and senescent cell antigen-like-containing domain protein 2, residues 13 to 71; numbered along this chain, Q7Z4I7 (parent)
chain: AVCQRCQARFSPAERIVNSNGELYHEHCFVCAQCFRPFPEGLFYEFEGRKYCEHDFQML

Variants of: B1
Assay: abundance fitness (aPCA) (normalised: wild type 0, dead -1); higher = more abundant; growth selection in yeast, the domain comes from the species named
Settings: Homo sapiens

Question: Which abundance fitness does the source give for AVCQRCQARFVPAERIVNSNGELYHEHCFVCAQCFRPFPEGLFYEFEGRKYCEHDFQML here?
Answer: Its abundance fitness is -0.227 ± 0.055.

Question: Which abundance fitness does the source give for AVCQRCQARFHPAERIVNSNGELYHEHCFVCAQCFRPFPEGLFYEFEGRKYCEHDFQML here?
Answer: Its abundance fitness is -0.407 ± 0.16.

Question: With AVCQRCQARFMPAERIVNSNGELYHEHCFVCAQCFRPFPEGLFYEFEGRKYCEHDFQML as the variant, how does the abundance fitness read?
Answer: The abundance fitness was 0.004 ± 0.067.

Question: With AVCQRCQARFAPAERIVNSNGELYHEHCFVCAQCFRPFPEGLFYEFEGRKYCEHDFQML as the variant, how does the abundance fitness read?
Answer: Its abundance fitness is 0.137 ± 0.063.

Question: Which abundance fitness does the source give for AVCQRCQARFWPAERIVNSNGELYHEHCFVCAQCFRPFPEGLFYEFEGRKYCEHDFQML here?
Answer: Its abundance fitness is -0.131 ± 0.08.

Question: Which abundance fitness does the source give for AVCQRCQARFGPAERIVNSNGELYHEHCFVCAQCFRPFPEGLFYEFEGRKYCEHDFQML here?
Answer: Its abundance fitness is -0.011 ± 0.063.

Question: For AVCQRCQARFCPAERIVNSNGELYHEHCFVCAQCFRPFPEGLFYEFEGRKYCEHDFQML, which abundance fitness is on record?
Answer: The abundance fitness was -0.155 ± 0.13.

Question: With AVCQRCQARFNPAERIVNSNGELYHEHCFVCAQCFRPFPEGLFYEFEGRKYCEHDFQML as the variant, how does the abundance fitness read?
Answer: The abundance fitness was -0.105 ± 0.12.

Question: With AVCQRCQARFKPAERIVNSNGELYHEHCFVCAQCFRPFPEGLFYEFEGRKYCEHDFQML as the variant, how does the abundance fitness read?
Answer: Its abundance fitness is -0.055 ± 0.074.

Question: For AVCQRCQARFQPAERIVNSNGELYHEHCFVCAQCFRPFPEGLFYEFEGRKYCEHDFQML, which abundance fitness is on record?
Answer: The abundance fitness was -0.075 ± 0.08.

Question: Which abundance fitness does the source give for AVCQRCQARFTPAERIVNSNGELYHEHCFVCAQCFRPFPEGLFYEFEGRKYCEHDFQML here?
Answer: The abundance fitness was -0.087 ± 0.067.

Question: Which abundance fitness does the source give for AVCQRCQARFSPNERIVNSNGELYHEHCFVCAQCFRPFPEGLFYEFEGRKYCEHDFQML here?
Answer: Its abundance fitness is 0.186 ± 0.13.

Question: With AVCQRCQARFSPFERIVNSNGELYHEHCFVCAQCFRPFPEGLFYEFEGRKYCEHDFQML as the variant, how does the abundance fitness read?
Answer: Its abundance fitness is -0.781 ± 0.15.

Question: With AVCQRCQARFSPDERIVNSNGELYHEHCFVCAQCFRPFPEGLFYEFEGRKYCEHDFQML as the variant, how does the abundance fitness read?
Answer: The abundance fitness was 0.142 ± 0.16.

Question: Which abundance fitness does the source give for AVCQRCQARFSPQERIVNSNGELYHEHCFVCAQCFRPFPEGLFYEFEGRKYCEHDFQML here?
Answer: Its abundance fitness is -0.245 ± 0.11.

Question: Which abundance fitness does the source give for AVCQRCQARFSPGERIVNSNGELYHEHCFVCAQCFRPFPEGLFYEFEGRKYCEHDFQML here?
Answer: Its abundance fitness is -0.182 ± 0.083.

Question: For AVCQRCQARFSPCERIVNSNGELYHEHCFVCAQCFRPFPEGLFYEFEGRKYCEHDFQML, which abundance fitness is on record?
Answer: Its abundance fitness is -0.176 ± 0.071.

Question: Which abundance fitness does the source give for AVCQRCQARFSPLERIVNSNGELYHEHCFVCAQCFRPFPEGLFYEFEGRKYCEHDFQML here?
Answer: Its abundance fitness is -0.039 ± 0.055.

Question: For AVCQRCQARFSPVERIVNSNGELYHEHCFVCAQCFRPFPEGLFYEFEGRKYCEHDFQML, which abundance fitness is on record?
Answer: Its abundance fitness is -0.327 ± 0.081.

Question: For AVCQRCQARFSPPERIVNSNGELYHEHCFVCAQCFRPFPEGLFYEFEGRKYCEHDFQML, which abundance fitness is on record?
Answer: Its abundance fitness is -0.076 ± 0.078.

Question: For AVCQRCQARFSPEERIVNSNGELYHEHCFVCAQCFRPFPEGLFYEFEGRKYCEHDFQML, which abundance fitness is on record?
Answer: The abundance fitness was 0.078 ± 0.096.

Question: With AVCQRCQARFSPMERIVNSNGELYHEHCFVCAQCFRPFPEGLFYEFEGRKYCEHDFQML as the variant, how does the abundance fitness read?
Answer: Its abundance fitness is -0.22 ± 0.1.

Question: For AVCQRCQARFSPYERIVNSNGELYHEHCFVCAQCFRPFPEGLFYEFEGRKYCEHDFQML, which abundance fitness is on record?
Answer: Its abundance fitness is -0.207 ± 0.12.

Question: With AVCQRCQARFSPRERIVNSNGELYHEHCFVCAQCFRPFPEGLFYEFEGRKYCEHDFQML as the variant, how does the abundance fitness read?
Answer: Its abundance fitness is -0.211 ± 0.059.

Question: Which abundance fitness does the source give for AVCQRCQARFSPIERIVNSNGELYHEHCFVCAQCFRPFPEGLFYEFEGRKYCEHDFQML here?
Answer: The abundance fitness was -0.581 ± 0.17.

Question: Which abundance fitness does the source give for AVCQRCQARFSPKERIVNSNGELYHEHCFVCAQCFRPFPEGLFYEFEGRKYCEHDFQML here?
Answer: The abundance fitness was 0.053 ± 0.072.

Question: For AVCQRCQARFSPTERIVNSNGELYHEHCFVCAQCFRPFPEGLFYEFEGRKYCEHDFQML, which abundance fitness is on record?
Answer: Its abundance fitness is 0.035 ± 0.071.

Question: Which abundance fitness does the source give for AVCQRCQARFSPHERIVNSNGELYHEHCFVCAQCFRPFPEGLFYEFEGRKYCEHDFQML here?
Answer: The abundance fitness was 0.017 ± 0.13.

Question: Which abundance fitness does the source give for AVCQRCQARFSPWERIVNSNGELYHEHCFVCAQCFRPFPEGLFYEFEGRKYCEHDFQML here?
Answer: Its abundance fitness is -0.372 ± 0.083.

Question: With AVCQRCQARNSPAERIVNSNGELYHEHCFVCAQCFRPFPEGLFYEFEGRKYCEHDFQML as the variant, how does the abundance fitness read?
Answer: The abundance fitness was -0.607 ± 0.19.

Question: With AVCQRCQARTSPAERIVNSNGELYHEHCFVCAQCFRPFPEGLFYEFEGRKYCEHDFQML as the variant, how does the abundance fitness read?
Answer: Its abundance fitness is -0.093 ± 0.068.

Question: With AVCQRCQARRSPAERIVNSNGELYHEHCFVCAQCFRPFPEGLFYEFEGRKYCEHDFQML as the variant, how does the abundance fitness read?
Answer: The abundance fitness was -0.601 ± 0.081.

Question: Which abundance fitness does the source give for AVCQRCQARDSPAERIVNSNGELYHEHCFVCAQCFRPFPEGLFYEFEGRKYCEHDFQML here?
Answer: The abundance fitness was -1.05 ± 0.24.

Question: With AVCQRCQARCSPAERIVNSNGELYHEHCFVCAQCFRPFPEGLFYEFEGRKYCEHDFQML as the variant, how does the abundance fitness read?
Answer: The abundance fitness was -0.139 ± 0.086.

Question: With AVCQRCQARLSPAERIVNSNGELYHEHCFVCAQCFRPFPEGLFYEFEGRKYCEHDFQML as the variant, how does the abundance fitness read?
Answer: The abundance fitness was 0.05 ± 0.049.

Question: For AVCQRCQARASPAERIVNSNGELYHEHCFVCAQCFRPFPEGLFYEFEGRKYCEHDFQML, which abundance fitness is on record?
Answer: The abundance fitness was -0.389 ± 0.1.

Question: Which abundance fitness does the source give for AVCQRCQARISPAERIVNSNGELYHEHCFVCAQCFRPFPEGLFYEFEGRKYCEHDFQML here?
Answer: The abundance fitness was 0.022 ± 0.1.

Question: For AVCQRCQARHSPAERIVNSNGELYHEHCFVCAQCFRPFPEGLFYEFEGRKYCEHDFQML, which abundance fitness is on record?
Answer: The abundance fitness was -0.343 ± 0.16.

Question: With AVCQRCQARMSPAERIVNSNGELYHEHCFVCAQCFRPFPEGLFYEFEGRKYCEHDFQML as the variant, how does the abundance fitness read?
Answer: The abundance fitness was -0.002 ± 0.084.

Question: Which abundance fitness does the source give for AVCQRCQARYSPAERIVNSNGELYHEHCFVCAQCFRPFPEGLFYEFEGRKYCEHDFQML here?
Answer: Its abundance fitness is -0.359 ± 0.1.

Question: For AVCQRCQARSSPAERIVNSNGELYHEHCFVCAQCFRPFPEGLFYEFEGRKYCEHDFQML, which abundance fitness is on record?
Answer: Its abundance fitness is -0.475 ± 0.07.

Question: With AVCQRCQARKSPAERIVNSNGELYHEHCFVCAQCFRPFPEGLFYEFEGRKYCEHDFQML as the variant, how does the abundance fitness read?
Answer: Its abundance fitness is -0.548 ± 0.1.

Question: For AVCQRCQARPSPAERIVNSNGELYHEHCFVCAQCFRPFPEGLFYEFEGRKYCEHDFQML, which abundance fitness is on record?
Answer: The abundance fitness was -0.304 ± 0.093.

Question: For AVCQRCQARQSPAERIVNSNGELYHEHCFVCAQCFRPFPEGLFYEFEGRKYCEHDFQML, which abundance fitness is on record?
Answer: The abundance fitness was -0.707 ± 0.1.

Question: With AVCQRCQARWSPAERIVNSNGELYHEHCFVCAQCFRPFPEGLFYEFEGRKYCEHDFQML as the variant, how does the abundance fitness read?
Answer: Its abundance fitness is -0.523 ± 0.1.

From the Human Domainome abundance scans (Beltran et al. 2025)
